# T1: His-avitag natural NKG2D ectodomain, biotinylated (human)
# T1 construct: also called natural form of the ectodomain of NKG2D
# T1 chain: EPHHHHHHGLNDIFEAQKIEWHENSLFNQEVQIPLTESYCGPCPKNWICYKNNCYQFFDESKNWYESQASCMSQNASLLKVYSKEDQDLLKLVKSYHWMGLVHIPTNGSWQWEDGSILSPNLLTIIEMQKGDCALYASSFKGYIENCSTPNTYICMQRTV
# Tests used:
# [1] = target: T1, His-avitag natural NKG2D ectodomain, …; experiment: BLI (Octet), biotinylated natural NKG2D ectodomain coated, 100 nM fusion
# Description: In order to characterize and compare the kinetic binding parameters of the natural and 8 variant α1-α2 domains to natural NKG2D, we measured their binding to surface coated biotinylated natural NKG2D ectodomain using biolayer interferometry (Octet) at 100 nM of each of the α1-α2-α3-Fv fusion proteins.
# [2] = target: T2, Fc-NKG2D.wt (human); experiment: ELISA, Fc-NKG2D coated, MicAbody titrated from 300 nM
# T2 construct: also called NKG2D.wt Y|Y; natural Fc-NKG2D
# Description: (§1) The binding affinities of α1-α2 variants to the extracellular domains of natural (wild-type) NKG2D and non-natural eNKG2D proteins were analyzed using a plate-based ELISA method. Each of the SEC fractionated natural Fc-NKG2D and non-natural Fc-eNKG2D fusions were coated overnight at 4° C. onto separate wells of Nunc Maxisorp 96 well plates (Thermo Fisher Scientific, Waltham, Mass.) using a coating concentration of 1 μg/mL in phosphate-buffered saline (PBS). The plates were washed three times in PBS/0.05% Tween-20 (PBS-T) at 20-22° C., and blocked with 0.5% bovine serum albumin in PBS (PBS-B) for 2 hours at 20-22° C. MicAbodies were titrated against the plate-bound natural or non-natural Fc-NKG2D fusions for 60 minutes at 20-22° C. in PBS/0.5% bovine serum albumin (BSA)/0.05% Tween-20 (PBS-BT), washed 3 times with PBS-T at 20-22° C., and the bound bispecific proteins detected using an HRP-conjugated anti-human kappa in PBS-BT (Abcam, Cambridge Mass.) and developed with 1-Step™ Ultra TMB ELISA Substrate Solution (Thermo Fisher Scientific, Waltham, Mass.).
# [3] = target: T3, Fc-eNKG2D6 (Y152L/Y199F) (human); experiment: as above
# T3 construct: also called eNKG2D6 L|F
# Description: as §1
# [4] = target: T4, Fc-eNKG2D2 (Y152S) (human); experiment: as above
# T4 construct: also called eNKG2D2 S|Y; not shown: human IgG1 Fc (without Fab domains)
# Description: as §1
# [5] = target: T5, Fc-eNKG2D4 (Y152V) (human); experiment: as above
# T5 construct: also called eNKG2D4 V|Y
# Description: as §1
# [6] = target: T6, Fc-eNKG2D14 (Y152L) (human); experiment: as above
# T6 construct: also called eNKG2D14 L|Y
# Description: as §1
# [7] = target: T7, Fc-eNKG2D3 (Y152T) (human); experiment: as above
# T7 construct: also called eNKG2D3 T|Y
# Description: as §1
# [8] = target: T8, Fc-eNKG2D15 (Y152F/Y199F) (human); experiment: as above
# T8 construct: also called eNKG2D15 F|F
# Description: as §1
# [9] = target: T9, Fc-eNKG2D12 (Y152D/Y199D) (human); experiment: ELISA, Fc-eNKG2D coated, MicAbody titrated from 300 nM
# T9 construct: also called eNKG2D12 D|D
# Description: as §1
# [10] = target: T10, Fc-eNKG2D13 (Y152E/Y199E) (human); experiment: as above
# T10 construct: also called eNKG2D13 E|E
# Description: as §1
# [11] = target: T11, Fc-eNKG2D8 (Y152T/Y199F) (human); experiment: BLI (Octet), Fc-eNKG2D captured on AHC tips, 20 nM MicAbody
# T11 construct: also called eNKG2D8 T|F
# Description: (§2) Additional biophysical analysis of eNKG2D variant binding to ligands was also performed with Bio-Layer Interferometry (BLI) using the FortéBio Octet system (all FortéBio LLC, Fremont, Calif.). For these experiments human NKG2D ligands MICA-Fc, MICB-Fc, ULBP1-Fc, ULBP2-Fc, ULBP3-Fc, and ULBP4-Fc were purchased from R&D Systems, Inc. (Minneapolis, Minn.). Ligands in the MicAbody format were captured on anti-human IgG Fc capture (AHC) biosensor tips. After a baselines were established, tips were exposed to a titration series of Fc-eNKG2D fusion proteins ranging from 300 nM to 0.41 nM and association/dissociation kinetics monitored with all steps performed in PBS-BT. Subsequently, Fc-eNKG2D fusion proteins were captured onto AHC tips and MicAbodies were titrated to characterize binding kinetics.
# (§3) Binding analysis under the same conditions was then performed with Fc-eNKG2D fusion receptors as the capture agent, and the level of binding for each eNKG2D ranked as a percentage of the maximal binding response established by Fc-NKG2D.wt (Table 2).
# [12] = target: T12, Fc-NKG2D.Y152A (human); experiment: as above
# T12 construct: also called eNKG2D A|Y; Fc-NKG2D.YA
# Description: as §2, §3
# [13] = target: T13, Fc-eNKG2D1 (Y199F) (human); experiment: as above
# T13 construct: also called eNKG2D1 Y|F; not shown: human IgG1 Fc (without Fab domains)
# Description: as §2, §3
# [14] = target: T4, Fc-eNKG2D2 (Y152S); experiment: as above
# Description: as §2, §3
# [15] = target: T5, Fc-eNKG2D4 (Y152V); experiment: as above
# Description: as §2, §3
# [16] = target: T14, Fc-eNKG2D7 (Y152S/Y199F) (human); experiment: as above
# T14 construct: also called eNKG2D7 S|F
# Description: as §2, §3
# [17] = target: T6, Fc-eNKG2D14 (Y152L); experiment: as above
# Description: as §2, §3
# [18] = target: T15, Fc-eNKG2D5 (Y152A/Y199F) (human); experiment: as above
# T15 construct: also called eNKG2D5 A|F; Fc-NKG2D.AF
# Description: as §2, §3
# [19] = target: T7, Fc-eNKG2D3 (Y152T); experiment: as above
# Description: as §2, §3
# [20] = target: T16, Fc-eNKG2D9 (Y152V/Y199F) (human); experiment: as above
# T16 construct: also called eNKG2D9 V|F
# Description: as §2, §3
# [21] = target: T2, Fc-NKG2D.wt; experiment: ELISA (called Kd in the text)
# Description: as §1
# [22] = target: T2, Fc-NKG2D.wt; experiment: ELISA, Fc-NKG2D coated, MicAbody titrated; quantitative ELISA of Table 12, fitted EC50 on Fc-NKG2D.wt (20092-fold weaker than on AF)
# [23] = target: T2, Fc-NKG2D.wt; experiment: ELISA, Fc-NKG2D coated, MicAbody titrated; quantitative ELISA of Table 12, fitted EC50 on Fc-NKG2D.wt (4414-fold weaker than on AF)
# [24] = target: T2, Fc-NKG2D.wt; experiment: ELISA, Fc-NKG2D coated, MicAbody titrated; quantitative ELISA of Table 12, fitted EC50 on Fc-NKG2D.wt (10802-fold weaker than on AF)
# T2 sequence (chain, as listed by the source limits assumed): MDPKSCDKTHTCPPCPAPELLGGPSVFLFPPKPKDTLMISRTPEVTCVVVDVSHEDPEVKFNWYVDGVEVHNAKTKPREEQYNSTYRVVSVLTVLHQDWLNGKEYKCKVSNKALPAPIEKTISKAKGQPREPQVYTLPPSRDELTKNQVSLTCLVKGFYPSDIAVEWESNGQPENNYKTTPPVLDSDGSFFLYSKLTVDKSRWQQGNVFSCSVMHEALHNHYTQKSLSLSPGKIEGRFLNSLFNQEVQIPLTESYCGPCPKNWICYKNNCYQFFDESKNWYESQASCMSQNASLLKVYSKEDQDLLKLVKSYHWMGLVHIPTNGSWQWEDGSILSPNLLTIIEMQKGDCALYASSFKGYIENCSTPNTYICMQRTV
# T4 sequence (chain, as listed by the source Y152S Y152S): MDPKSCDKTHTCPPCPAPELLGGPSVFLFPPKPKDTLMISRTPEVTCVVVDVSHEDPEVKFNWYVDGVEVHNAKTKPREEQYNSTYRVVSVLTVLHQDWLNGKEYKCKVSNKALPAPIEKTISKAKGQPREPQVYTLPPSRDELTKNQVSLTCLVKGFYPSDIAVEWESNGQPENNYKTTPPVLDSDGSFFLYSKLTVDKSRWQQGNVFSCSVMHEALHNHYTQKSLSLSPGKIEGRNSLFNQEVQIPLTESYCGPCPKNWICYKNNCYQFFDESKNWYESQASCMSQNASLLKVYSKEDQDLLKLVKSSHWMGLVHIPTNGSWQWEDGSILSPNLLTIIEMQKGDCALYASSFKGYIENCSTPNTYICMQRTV
# T5 sequence (chain, as listed by the source Y152V Y152V limits assumed): as the sequence (chain, as listed by the source limits assumed) above, with Y312V counted along it
# T7 sequence (chain, as listed by the source Y152T Y152T limits assumed): as the sequence (chain, as listed by the source limits assumed) above, with Y312T counted along it
# T6 sequence (chain, as listed by the source Y152L Y152L limits assumed): as the sequence (chain, as listed by the source limits assumed) above, with Y312L counted along it
# T9 sequence (chain, as listed by the source Y152D Y199D Y152D Y199D limits assumed): as the sequence (chain, as listed by the source limits assumed) above, with Y312D, Y359D counted along it
# T13 sequence (chain, as listed by the source Y199F Y199F): as the sequence (chain, as listed by the source Y152S Y152S) above, with S310Y, Y357F counted along it
# T8 sequence (chain, as listed by the source Y152F Y199F Y152F Y199F limits assumed): as the sequence (chain, as listed by the source limits assumed) above, with Y312F, Y359F counted along it
# T11 sequence (chain, as listed by the source Y152T Y199F Y152T Y199F limits assumed): as the sequence (chain, as listed by the source limits assumed) above, with Y312T, Y359F counted along it
# T15 sequence (chain, as listed by the source Y152A Y199F Y152A Y199F limits assumed): as the sequence (chain, as listed by the source limits assumed) above, with Y312A, Y359F counted along it
# T3 sequence (chain, as listed by the source Y152L Y199F Y152L Y199F limits assumed): as the sequence (chain, as listed by the source limits assumed) above, with Y312L, Y359F counted along it
# T12 sequence (chain, as listed by the source Y152A Y152A limits assumed): as the sequence (chain, as listed by the source limits assumed) above, with Y312A counted along it
# T10 sequence (chain, as listed by the source Y152E Y199E Y152E Y199E limits assumed): as the sequence (chain, as listed by the source limits assumed) above, with Y312E, Y359E counted along it
# T14 sequence (chain, as listed by the source Y152S Y199F Y152S Y199F limits assumed): as the sequence (chain, as listed by the source limits assumed) above, with Y312S, Y359F counted along it
# T16 sequence (chain, as listed by the source Y152V Y199F Y152V Y199F limits assumed): as the sequence (chain, as listed by the source limits assumed) above, with Y312V, Y359F counted along it
binder,measurement,setting,value
DSM25 α1-α2-α3-Fv fusion (SEQ ID NO 43) (ligand) EPHSLRYNLTVLSWDGSVQSGFLTEVHLDGQPFLRCDRQKCRAKPQGQWAEDVLGNKTWDRETRDLTGWGKDLRMTLAHIKDQKEGLHSLQEIRVCEIHEDNSTRSSQHFYYDGELFLSQNLETLEWTMPQSSRAQTLAMNVRNFLKEDAMETDTHYHAMRADCLSELRRYLKSGVVLRRTVPPMVQVTRSEASGGSGDRVTITCRASQDVSTAVAWYQQKPGKAPKLLIYSASFLYSGVPSRFSGSGSGTDFTLTISSLQPEDFATYYCQQSYTTPPTFGQGTKVEIKGGSSRSSSSGGGGSGGGGEVQLVESGGGLVQPGGSLRLSCAASGFTFTSTGISWVRQAPGKGLEWVGRIYPTNGSTNYADSVKGRFTISADTSKNTAYLQMNSLRAEDTAVYYCARTYGIYDLYVDYTEYVMDYWGQGTLVTVSSGGSSRSSSSGGGGSGGGGDIQMTQSPSSLSASGGSGQITVTCRASGFYPWNITLSWRQDGVSLSHDTQQWGDVLPDGQGTYQTWVATRISQGEEQRFTCYMEHSGQHSTHPVPSGKGSHHHHHH,binding result,[1],binds
"trastuzumab-MIC25 MicAbody (bispecific antibody, human IgG1, kappa) heavy: not shown light: not shown EPHSLRYNLTVLSWDGSVQSGFLTEVHLDGQPFLRCDRQKCRAKPQGQWAEDVLGNKTWDRETRDLTGWGKDLRMTLAHIKDQKEGLHSLQEIRVCEIHEDNSTRSSQHFYYDGELFLSQNLETLEWTMPQSSRAQTLAMNVRNFLKEDAMETDTHYHAMRADCLSELRRYLKSGVVLRRTV",EC50,[2],~0.0039 nM
same,EC50,[3],0.37 nM
same,EC50,[4],0.0056 nM
same,EC50,[5],~0.0043 nM
same,EC50,[6],0.01 nM
same,EC50,[7],0.0056 nM
same,EC50,[8],0.046 nM
same,binding result,[9],no binding (tested: 300 nM)
same,binding result,[10],no binding (tested: 300 nM)
same,percent of the maximal binding response of Fc-NKG2D.wt,[11],50%
same,percent of the maximal binding response of Fc-NKG2D.wt,[12],100%
same,percent of the maximal binding response of Fc-NKG2D.wt,[13],100%
same,percent of the maximal binding response of Fc-NKG2D.wt,[14],100%
same,percent of the maximal binding response of Fc-NKG2D.wt,[15],100%
same,percent of the maximal binding response of Fc-NKG2D.wt,[16],50%
same,percent of the maximal binding response of Fc-NKG2D.wt,[17],100%
same,percent of the maximal binding response of Fc-NKG2D.wt,[18],50%
same,percent of the maximal binding response of Fc-NKG2D.wt,[19],100%
same,percent of the maximal binding response of Fc-NKG2D.wt,[20],100%
same,EC50,[21],~0.005 nM
"rituximab-MicAbody with ULBP2 variant AA (bispecific antibody, human IgG1, kappa, also called ULBP2.AA) heavy: not shown light: QIVLSQSPAILSASPGEKVTMTCRASSSVSYIHWFQQKPGSSPKPWIYATSNLASGVPVRFSGSGSGTSYSLTISRVEAEDAATYYCQQWTSNPPTFGGGTKLEIKTVAAPSVFIFPPSDEQLKSGTASVVCLLNNFYPREAKVQWKVDNALQSGNSQESVTEQDSKDSTYSLSSTLTLSKADYEKHKVYACEVTHQGLSSPVTKSFNRGECAPTSSSGGGGSEPHSLSYDITVIPKFRPGPRWCAVQGQVDEKTFLHYDCGNKTVTPVSPLGKKLNVTTAWKAQNPVLREVVDILTEQLWDIQLENYTPKEPLTLQARMSCEQKAEGHSSGSWQFSFDGQIFLLFDSEKRMWTTVHPGARKMKEKWENDKVVATMFWSWSMGDCIGWLEDFLMGMDSTLEPS",EC50,[22],655 nM
"rituximab-MicAbody with ULBP2 variant C (bispecific antibody, human IgG1, kappa, also called ULBP2.C) heavy: not shown light: QIVLSQSPAILSASPGEKVTMTCRASSSVSYIHWFQQKPGSSPKPWIYATSNLASGVPVRFSGSGSGTSYSLTISRVEAEDAATYYCQQWTSNPPTFGGGTKLEIKTVAAPSVFIFPPSDEQLKSGTASVVCLLNNFYPREAKVQWKVDNALQSGNSQESVTEQDSKDSTYSLSSTLTLSKADYEKHKVYACEVTHQGLSSPVTKSFNRGECAPTSSSGGGGSEPHSLSYDITVIPKFRPGPRWCAVQGQVDEKTFLHYDCGNKTVTPVSPLGKKLNVTTAWKAQNPVLREVVDILTEQLWDIQLENYTPKEPLTLQARMSCEQKAEGHSSGSWQFSFDGQIFLLFDSEKRMWTTVHPGARKMKEKWENDKVVATILWQTSMGDCIGWLEDFLMGMDSTLEPS",EC50,[23],130 nM
"rituximab-MicAbody with ULBP2 variant AB (bispecific antibody, human IgG1, kappa, also called ULBP2.AB) heavy: not shown light: QIVLSQSPAILSASPGEKVTMTCRASSSVSYIHWFQQKPGSSPKPWIYATSNLASGVPVRFSGSGSGTSYSLTISRVEAEDAATYYCQQWTSNPPTFGGGTKLEIKTVAAPSVFIFPPSDEQLKSGTASVVCLLNNFYPREAKVQWKVDNALQSGNSQESVTEQDSKDSTYSLSSTLTLSKADYEKHKVYACEVTHQGLSSPVTKSFNRGECAPTSSSGGGGSEPHSLSYDITVIPKFRPGPRWCAVQGQVDEKTFLHYDCGNKTVTPVSPLGKKLNVTTAWKAQNPVLREVVDILTEQLWDIQLENYTPKEPLTLQARMSCEQKAEGHSSGSWQFSFDGQIFLLFDSEKRMWTTVHPGARKMKEKWENDKVVATLMWQWSMGDCIGWLEDFLMGMDSTLEPS",EC50,[24],389 nM
